Source: article doi:10.1101/2022.12.07.519389 (bioRxiv, 2022)

Target: the molecule itself
Assay: negative-stain EM + ThT fluorescence

B1: CPEB3 residues 1-217 (prion-like domain 1 construct) (domain or fragment)
chain: MQDDLLMDKSKTQPQPQQQQRQQQQPQPESSVSEAPSTPLSSETPKPEENSAVPALSPAAAPPAPNGPDKMQMESPLLPGLSFHQPPQQPPPPQEPAAPGASLSPSFGSTWSTGTTNAVEDSFFQGITPVNGTMLFQNFPHHVNPVFGGTFSPQIGLAQTQHHQQPPPPAPAPQPAQPAQPPQAQPPQQRRSPASPSQAPYAQRSAAAAYGHQPIMT
B1: binds.
